In US5457092A, “Methods of promoting bone growth in mammals comprising administration of modified parathyroid hormone” (Gesellschaft fur Biotechnologische Forschung mbH (GBF), priority 1987, dated 1995):

How the values were obtained:
[1] = tested on: ROS 17/2.8 osteoblast-like cells; assay: CK specific activity in ROS 17/2.8 osteoblast-like cells; assay type: cell-based, rat; conditions: control 698 ± 70 nmol/min per mg of protein
[2] = tested on: osteoblast enriched rat embryo calvaria cell cultures; assay: DNA synthesis ([3H]thymidine incorporation) in rat embryo calvaria cell cultures; assay type: cell-based
Experimental: (§1) FIG. 10 is a graphical representation showing the dose dependent stimulation by bPTH (1-84) of osteoblast enriched rat embryo calvaria cell cultures. Experimental details for the determination of cyclic AMP (.quadrature.) (15 min after stimulation) and incorporation of [^3 H]thymidine into DNA ( ) and CK ( ) specific activity (24 h after stimulation) are given below. The results are means ±S.E.M., N≥5. In several cases the S.E.M. was less than the size of the symbol. Control values were: cyclic AMP, 25±5 pmol/mg of protein; DNA, 240±30 c.p.m./μg of DNA; CK, 200±20 nmol/min per mg of protein. Statistical significance of differences between treated and corresponding control groups by Student's T test: *P<0.05; **P<0.01.

[3] = tested on: osteoblast enriched rat embryo calvaria cell cultures; assay: CK specific activity in rat embryo calvaria cell cultures; assay type: cell-based; conditions: for increase of CK activity (in words): treated for 24 h
Experimental: as §1
(§2) Rat calvaria cultures were treated with fragments of PTH derived from the central portion of the molecule.

[4] = tested on: rat organs (epiphysis, diaphysis, kidney); assay: [3H]thymidine incorporation into DNA in rat organs after i.p. injection; assay type: in vivo
[5] = tested on: rat organs (epiphysis, diaphysis, kidney); assay: CK specific activity in rat organs after i.p. injection; assay type: in vivo; conditions: i.p., 4 h later
Experimental: FIG. 13 is a graph showing the time-dependent stimulation by hPTH (28-48) of CK specific activity in rat organs. Female rats (20-25 days old) were injected i.p. with hPTH-(28-48) (1.25 μg/rat). Experimental details are as described for FIG. 10. (a) Diaphysis, (b) epiphysis, (c) kidney. *P<0.05, **P<0.01 versus controls.
FIG. 14 is a graph showing the dose-dependent stimulation of CK specific activity by hPTH (1-34) in rat organs. Female rats (20-25 days old) were injected i.p. with hPTH-(1-34). At 4 h later, rats were killed and extracts were prepared and assayed as described below. Experimental details are as described for FIG. 10 (a) Diaphysis, (b) epiphysis, (c) kidney. *P<0.05, ** P<0.01 versus controls.
FIG. 15 is a graph showing the dose-dependent stimulation of CK specific activity by hPTH (28-48) in rat organs. Female rats (20-25 days old) were injected i.p. with hPTH-(28-48). Experimental details are as described for FIG. 13 (a) Diaphysis, (b) epiphysis, (c) kidney. *P<0.05, **P<0.01 versus controls.
FIG. 16 is a graph showing the […] stimulation by bPTH (1-84) of CK specific activity in rat organs. Female rats (20-25 days old) were injected i.p. with bPTH-(1-84) (3.5 μg/rat). At the times indicated, the rats were killed and the diaphyses (a) and epiphyses (b) of long bones as well as the kidneys (c) were collected and homogenized. Extracts were prepared and assayed as described below. Results are means ±S.E.M for π=5. Statistical significance of differences between treated and control groups by Student's T test: *P<0.05; **P<0.01. Note that the activity scales differ for different organs.
Kidneys, tibia and femur were excised; the epiphyses or diaphyses of the long bones were collected and washed thoroughly with cold 0.9% NaCl. The bones were split open lengthwise and the marrow was scraped out. Organs were homogenized in ice-cold buffer containing 50 mM-Tris/HCl (pH 6.8), 5 mH-magnesium acetate. 2.5 mM-dithiothreitol, 0.4 mM-EDTA and 250 mM-sucrose using a Polytron homogenizer in 10 s bursts with intervening cooling periods. Supernatant extracts were obtained by centrifugation at 12000 g for 5 min at 4° C. CK activity was measured at 30° C. in a Gilford 250 automatic recording spectrophotometer at 340 nm using a coupled assay for ATP, in 0.5 ml of incubation mixture containing 50 mM-imidazole acetate buffer (pH 6.7), 25 mM-phosphocreatine, 20 mM-N-acetylcysteine, 20 mM-D-glucose, 10 mM-magnesium acetate, 5 mM-EDTA, 2 mM-ADP, 2 mM-NAD+, 2 mM-dithiothreitol, 50 μM-diadenosine pentaphosphate (adenylate kinase inhibitor), 5 μg of bovine serum albumin. 1.2 units of glucose-6-phosphate dehydrogenase and 0.8 units of hexokinase. Protein was determined by the Coomassie Brilliant Blue dye-binding method, with bovine serum albumin as the standard.

[6] = tested on: ROS 17/2.8 osteoblast-like cells; assay: Cyclic AMP production in ROS 17/2.8 osteoblast-like cells; assay type: cell-based, rat; conditions: for Cyclic AMP, effect of fragment (experimental value/control value): control 29 ± 5.2 pmol/mg of protein
Experimental: When cultures of the widely used model for osteoblasts, the osteoblast-likeclone of rat osteosarcoma, ROS 17/2.8 (Endocrinology (Baltimore), 107 (1980) 1494-1503=12; Majeska et al.), were incubated with full-length PTH and PTH fragments (Table 4), cyclic AMP production was stimulated only by bPTH(1-84) and hPTH(1-34), whereas hPTH(25-39), hPTH(27-48), hPTH(28-48) and hPTH(34-47) were ineffective.

[7] = tested on: ROS 17/2.8 osteoblast-like cells; assay: DNA synthesis in ROS 17/2.8 osteoblast-like cells; assay type: cell-based, rat; conditions: control 392 ± 58 c.p.m./μg of DNA
[8] = tested on: rat organs (epiphysis, diaphysis, kidney); assay: [3H]thymidine incorporation into DNA in rat organs after i.p. injection; assay type: in vivo; remark: listed apart in the source
Experimental: FIG. 12 is a graph showing the time course of stimulation by hPTH (1-34) of DNA synthesis in rat organs. Female rats (20-25 days old) were injected i.p. with hPTH-(1-34) (2 μg/rat). At 2 h before the times indicated, the rats were killed and organs were removed and incubated in 2 ml of Dulbecco's modified Eagle's medium containing 5 μl of [^3 H]thymidine. (Amersham: 5 Ci/mmol) for 2 h, then washed with medium and homogenized in deionized distilled water. The total uptake of [^3 H]thymidine and acid-insoluble radioactivity was measured, as well as DNA content, as described below. , Diaphysis; O, epiphysis; Δ; kidney. P<0.01 versus controls.
The pieces were then incubated for 2 h more (the time indicated in FIG. 12) with [^3 H]thymidine (5 μci/ml; 5 Ci/mmol) at 37° C. in Dulbecco's modified Eagle's medium under an atmosphere Of […] /95% air. Total [^3 H]thymidine uptake and incorporation into trichloroacetic acid-insoluble material was measured as described in Biochem. J., 214 (1983) 293-298 (16; Somjen et al.). At no time including the 22 24 h pulse, was there any significant change in the total uptake of [^3 H]thymidine which reflects changes in the thymidine pool which, in turn, could account for changes in incorporation. DNA was determined by the Burton method; cf. Biochem. J., 62 (1956) 315-323 (17; Burton).
To corroborate that under the circumstances of these experiments the increase in CK specific activity in bone is indeed a valid marker of cell proliferation, changes in DNA synthesis were measured by [^3 H]thymidine incorporation; cf. Biochem. J., 272 (1990) 781-785 (18; Somjen et al.). The earliest time at which PTH increased [^3 H]thymidine incorporation was determined by in-jecting rats with an optimal dose of 2 μp of PTH(1-34)/rat, equivalent to 13 nM (FIG. 14) and measuring 2 h pulses of [^3 H)thymidine incorporation into DNA (FIG. 12).

[9] = tested on: osteoblast enriched rat embryo calvaria cell cultures; assay: Cyclic AMP production in rat embryo calvaria cell cultures; assay type: cell-based
Experimental: as §1, §2

[10] = tested on: rat epiphysial cartilage cell cultures; assay: DNA synthesis in rat epiphysial cartilage cell cultures; assay type: cell-based; conditions: 10 nM; control 350 ± 25
[11] = tested on: rat epiphysial cartilage cell cultures; assay: CK specific activity in rat epiphysial cartilage cell cultures; assay type: cell-based
Experimental: To compare the stimulations seen in osteoblast-like cells (FIGS. 10 and 11) with PTH effects in a cartilage system, cultures of rat epiphysial cartilage cells were incubated with full-length PTH and selected PTH fragments (Table 3). CK activity was stimulated by bPTH(1-84) and hPTH(28-48) but not by hPTH(25-39) or hPTH(34-47). […] The comparison between the complete molecule and the mid-regional fragment hPTH (28-48) is similar to but not identical with the results obtained for calvaria cell cultures (FIGS. 10 and 11) and in the chick sternum chondrocyte system; cf. Biochem. J., 252 (1988) 263-268 (11; Farndale et al.),

Molecule: CC[C@H](C)[C@H](NC(=O)[C@H](CCC(=O)O)NC(=O)[C@H](CO)NC(=O)[C@@H](NC(=O)[C@@H](N)CO)C(C)C)C(=O)N[C@@H](CCC(N)=O)C(=O)N[C@@H](CC(C)C)C(=O)N[C@@H](CCSC)C(=O)N[C@@H](Cc1c[nH]cn1)C(=O)N[C@@H](CC(N)=O)C(=O)N[C@@H](CC(C)C)C(=O)NCC(=O)N[C@@H](CCCCN)C(=O)N[C@@H](Cc1c[nH]cn1)C(=O)N[C@@H](CC(C)C)C(=O)N[C@@H](CC(N)=O)C(=O)N[C@@H](CO)C(=O)N[C@@H](CCSC)C(=O)N[C@@H](CCC(=O)O)C(=O)N[C@@H](CCCNC(=N)N)C(=O)N[C@H](C(=O)N[C@@H](CCC(=O)O)C(=O)N[C@@H](Cc1c[nH]c2ccccc12)C(=O)N[C@@H](CC(C)C)C(=O)N[C@@H](CCCNC(=N)N)C(=O)N[C@@H](CCCCN)C(=O)N[C@@H](CCCCN)C(=O)N[C@@H](CC(C)C)C(=O)N[C@@H](CCC(N)=O)C(=O)N[C@@H](CC(=O)O)C(=O)N[C@H](C(=O)N[C@@H](Cc1c[nH]cn1)C(=O)N[C@@H](CC(N)=O)C(=O)N[C@@H](Cc1ccccc1)C(=O)O)C(C)C)C(C)C [hPTH(1-34)]
- CK specific activity, effect of fragment (experimental value/control value) ([1]; 40 nM): 1.83 ± 0.09
- stimulation of DNA synthesis (in words) [2]: maximal
- increase of CK activity (in words) [3]: maximally active
- DNA synthesis in the diaphysis and the epiphysis at 24 h (in words) ([4]; 2 μg/rat, 24 h): significant increase
- dose of maximal effect on CK specific activity [5]: 2 μg/rat
- dose giving a significant increase in CK specific activity in all organs ([5]; diaphysis, epiphysis, kidney): 0.4 μg/rat
- stimulation of cyclic AMP production (in words) [6]: stimulated
- Cyclic AMP, effect of fragment (experimental value/control value) ([6]; 40 nM): 4.67 ± 0.09
- [^3 H]Thymidine incorporation, effect of fragment (experimental value/control value) ([7]; 40 nM): 2.06 ± 0.09
- DNA synthesis in the kidney over time (in words) ([8]; 2 μg/rat, equivalent to 13 nM, 2 h pulses): no increase in DNA synthesis at any time
- DNA synthesis in the diaphysis and the epiphysis at 4 or 16 h (in words) ([8]; 2 μg/rat, 4 or 16 h): no change
- stimulation of cyclic AMP production (in words) ([9]; treated for 15 min): able to stimulate cyclic AMP formation

B1: bPTH(1-84): full-length (complete) parathyroid hormone, bovine source; comparative example (protein, UniProt P01268 32-115, looked up)
Parathyroid hormone: AVSEIQFMHNLGKHLSSMERVEWLRKKLQDVHNFVALGASIAYRDGSSQRPRKKEDNVLVESHQKSLGEADKADVDVLIKAKPQ
modifications: Parathyroid hormone
- [^3 H]Thymidine incorporation into DNA [10]: 556 ± 50 c.p.m./plate
- CK specific activity, effect of fragment (experimental value/control value) ([1]; 10 nM): 1.92 ± 0.11
- stimulation of DNA synthesis (in words) [2]: maximal
- [3H)Thymidine incorporation, effect of fragment (experimental value/control value) ([2]; 100 nM, 24 h, control 624 ± 73 c.p.m./μg of DNA): 2.61 ± 0.11
- CK specific activity, effect of fragment (experimental value/control value) ([3]; 100 nM, 24 h, control 457 ± 46 nmol/min per mg of protein): 2.27 ± 0.09
- increase of CK activity (in words) [3]: maximally active
- [^3 H]thymidine incorporation into DNA, Kidney ([4]; rat, 22-24 h after injection of 3.5 μg, control 9.0 ± 2.1): 11.8 ± 2.4 c.p.m./pg of DNA
- [^3 H]thymidine incorporation into DNA, Diaphysis ([4]; rat, 22-24 h after injection of 3.5 μg, control 24.1 ± 3.8): 43.4 ± 4.7 c.p.m./pg of DNA
- [^3 H]thymidine incorporation into DNA, Epiphysis ([4]; rat, 22-24 h after injection of 3.5 μg, control 25.8 ± 5.2): 40.7 ± 3.3 c.p.m./pg of DNA
- stimulation of cyclic AMP production (in words) [6]: stimulated
- Cyclic AMP, effect of fragment (experimental value/control value) ([6]; 10 nM): 4.60 ± 0.10
- [^3 H]Thymidine incorporation, effect of fragment (experimental value/control value) ([7]; 10 nM): 1.71 ± 0.18
- stimulation of DNA synthesis in the kidney (in words) ([8]; 22-24 h after injection): no significant stimulation
- stimulation of CK activity (in words) [11]: stimulated
- CK specific activity ([11]; 10 nM, control 225 ± 32): 389 ± 39 nmol/min per mg of protein
- Cyclic AMP concentration, effect of fragment (experimental value/control value) ([9]; 100 nM, 15 min, control 29 ± 2.9 pmol/mg of protein): 3.74 ± 0.30
